{
  "source": "the DeepSol protein solubility set",
  "data": [
    {"assay": "soluble on expression in E. coli; label from the status in PepcDB or PDB records", "values": [
      {"sequence": "MGSDKIHHHHHHDTDKGLARRLPPPVPKDQKNDTDVDIKKRNLLVVLINSNNQILCGDQFVDIKQLKERIKEFIDNPYNDEHKPERVEADVPFFGKMMVTKNHVISLQNDRGTEYQAYIDVQNEIAAAYNELRNKVSKEKFGKNFADLDEEQQKAVQQIYPQKISEAEPKNYGGKK", "soluble on expression in E. coli": "not soluble"},
      {"sequence": "MSLVRQLIGRTLSGTVTMCAGPFRSVLNMLHRPQWETAMIAPLPAVDMRVICAGHVNWDVTLHVDHLPKPDGEGRITDRSQSSGGSASNAAVALAGLDADPLVLGSVGRDDHGTMARRELAATGVETLLIESDEATAVKYLIVDENGDVAVLGNDGANEAFNASDLPAETLAEADHLHLTGQNPTTAATLARDAAAADVPVSFDPGRRLPYRDYSSVLSHAEILFCNDREADHARDSGLFETVPTVVVKHGDCGATAHIGDQTVTNAGYPIESVDTAGAGDAFAAGYLLASAQETDPERALAVANACGALAAQSSGARTTLDWESVWELVDSGQEGHHHHHH", "soluble on expression in E. coli": "soluble"},
      {"sequence": "MYAIAEDTLPARVLKELLLYRRRYPEHRQSASEADEIRRIEQVQLPRIAAFIEAGEPIEFVLPAFPAKSPNPGKVLDSRPDMAERLSLSFLNHLCQRIQLFYAPGAKITVCSDGRVFGDLVRIGDAHISAYQDALRLMIEEIGATHIGVFNLEDVRAFEAQRDNHEQLRQLLIGGYAEPLESIRETLLASEEGLLLYRAITRFLYEDGLTPDYQGSKTALQRDAKERAYGVIQRSWAWGALLADQFPRAIRLSIHPQPADSLKFGIHMMPTRDDWLTPWHGVAVNTEDRFVLMKRSEVLELGGELVQINGQPSHYRLPARAARRAAVALEHHHHHH", "soluble on expression in E. coli": "not soluble"},
      {"sequence": "MSEEIISKKPSKPQASRKGKRAWRKNIDIQEIEQNLQDKRDEEIVLGKEVTDDFVIDDTPSSKSGKLPKKLKTKEILTNKSKIPALTNQRHQKKGENTIQGVKKTDLLRLIQLNGGKFKSEDKYVNRLEQDGIVNGSSQDLWDDTDNNEKKKIPDFMKSTAEVTKASVVPKTLKVNPIKITSNELTDKKIHAGKSYNPSLESWKELINQEYDIEYKRELTRQQIEEHRNKIKELMITLDDNMLSDSDDDEDDEDNDKVEEEEQLNANGEKDYSLSINKPNKIKIKTKTKRNKELKHKERVKLEQEIKDLKKQLKDLSNLDEILEKQAVKDQSQPNEKKRKRREKLFKYSLVETPLEVKLSDELSGNLKNLKPEGNLYYDQMLSLQSSGKIESRVPVNKKRKYTKKITEKWTYKDFK", "soluble on expression in E. coli": "not soluble"},
      {"sequence": "MMPSQITRSSHSSLPEVAPASGDATGVSEQTPQQARTVAFFSSGELAVAFGRTSAAPEQDSVRLLSALQRELDKQHPSWHTVAQLCQSLAEVGTTEQGWHQLASEDQLPALRELLDRCTHRLADMPAAHASHDSLSQACEGLRTARLHQSVARLTARPSSLARAMADLLTLTHLDPETLGAEPPVISSYTLFSHFVRTAKQRTADLNDSLQRQPDAVVSLLRSHADTLNDLEMLPGALQALTENCQDAPARNELRELAEVAGALLQLLLEHDLLPRLEEISIEPGEA", "soluble on expression in E. coli": "not soluble"},
      {"sequence": "MTMMTATQALSVNPATGQTLAAMPWANAQEIEHALSLAASGFKKWKMTSVAQRAQTLRDIGQALRAHAEEMAQCITREMGKPIKQARAEVTKSAALCDWYAEHGPAMLNPEPTLVENQQAVIEYRPLGVILAIMPWNFPLWQVLRGAVPILLAGNSYLLKHAPNVTGCAQMIARILAEAGTPAGVYGWVNANNEGVSQMINDPRIAAVTVTGSVRAGAAIGAQAGAALKKCVLELGGSDPFIVLNDADLELAVKAAVAGRYQNTGQVCAAAKRFIVEEGIAQAFTDRFVAAAAALKMGDPLVEENDLGPMARFDLRDELHQQVQASVAEGARLLLGGEKIAGEGNYYAATVLADVTPDMTAFRQELFGPVAAITVAKDAAHALALANDSEFGLSATIFTADDTLAAEMAARLECGGVFINGYSASDARVAFGGVKKSGFGRELSHFGLHEFCNVQTVWKNRV", "soluble on expression in E. coli": "soluble"},
      {"sequence": "MKSGEKDYSVKEAMIFSQRIAQLSKALWKCVEKDWQQWIKPYDLNINEHHILTIAYHLKGASISEIAKFGVMHVSTAFNFSKKLEERGYLVFSKKEDDKRNTYIEITDKGEELLLRLMEEYDPENNSVFNGALALRNFYGKFPENIELIAILRNIYGQDFIDIFEKSLEDIEENFTESDQKLVKK", "soluble on expression in E. coli": "not soluble"}
    ]}
  ]
}
